{"source": "paper PMC11417369", "about": "“DNA sequence and chromatin differentiate sequence-specific transcription factor binding in the human malaria parasite Plasmodium falciparum”", "binders": {"B1": {"name": "GTGCAC_site10475 (dsDNA)", "DNA 1": "TAATGTTCCTATATAGTGCAATTATGTTTTATTTCT", "DNA 2": "AGAAATAAAACATAATTGCACTATATAGGAACATTA"}, "B2": {"name": "GTGCAC_site10493 (dsDNA)", "DNA 1": "AAAGGATTTATACTAGTGCAAAAATATAAAAATATA", "DNA 2": "TATATTTTTATATTTTTGCACTAGTATAAATCCTTT"}, "B3": {"name": "GTGCAC_negctrl_site370 (dsDNA)", "DNA 1": "AATATATGGTTTCATGATATTAAATTCAATTTAATG", "DNA 2": "CATTAAATTGAATTTAATATCATGAAACCATATATT"}, "B4": {"name": "GTGCAC_site10457 (dsDNA)", "DNA 1": "TACAATATATTTATAGTGCATATTACTTTTAACTTT", "DNA 2": "AAAGTTAAAAGTAATATGCACTATAAATATATTGTA"}, "B5": {"name": "GTGCAC_negctrl_site309 (dsDNA)", "DNA 1": "AATGATGTTGTATTGTTTCGATATAACATCTAATTT", "DNA 2": "AAATTAGATGTTATATCGAAACAATACAACATCATT"}, "B6": {"name": "GTGCAC_site10208 (dsDNA)", "DNA 1": "TTTTGTTATTAGAGGGTGCTTATAATGAACTCCTAC", "DNA 2": "GTAGGAGTTCATTATAAGCACCCTCTAATAACAAAA"}, "B7": {"name": "GTGCAC_negctrl_site345 (dsDNA)", "DNA 1": "TTTTTCTATATTTTCTTTTATAAAATATATAATTTT", "DNA 2": "AAAATTATATATTTTATAAAAGAAAATATAGAAAAA"}, "B8": {"name": "GTGCAC_negctrl_site80 (dsDNA)", "DNA 1": "TATTTTTTTTTCTTTTTATATATAATAATCTTCATT", "DNA 2": "AATGAAGATTATTATATATAAAAAGAAAAAAAAATA"}, "B9": {"name": "GTGCAC_site10627 (dsDNA)", "DNA 1": "TTAAGATACAAAAAAGTGCATATTTTTTAACAAAAA", "DNA 2": "TTTTTGTTAAAAAATATGCACTTTTTTGTATCTTAA"}, "B10": {"name": "GTGCAC_negctrl_site139 (dsDNA)", "DNA 1": "TGATGAAAATCTACATGAATGTTTTTATATCTATAT", "DNA 2": "ATATAGATATAAAAACATTCATGTAGATTTTCATCA"}, "B11": {"name": "GTGCAC_negctrl_site37 (dsDNA)", "DNA 1": "AATAAATAAATAAATTAATAAATTAATAAATTAATA", "DNA 2": "TATTAATTTATTAATTTATTAATTTATTTATTTATT"}, "B12": {"name": "GTGCAC_negctrl_site616 (dsDNA)", "DNA 1": "TTATTTTTATTATAAATTATAAAATATAAATAAATA", "DNA 2": "TATTTATTTATATTTTATAATTTATAATAAAAATAA"}, "B13": {"name": "GTGCAC_negctrl_site185 (dsDNA)", "DNA 1": "AAAAGAAAAATGTCATATGATATCATATATTTTATA", "DNA 2": "TATAAAATATATGATATCATATGACATTTTTCTTTT"}, "B14": {"name": "GTGCAC_site9599 (dsDNA)", "DNA 1": "TTATATGTATATATAGTGCAGAACAAAAGATTATAT", "DNA 2": "ATATAATCTTTTGTTCTGCACTATATATACATATAA"}, "B15": {"name": "GTGCAC_negctrl_site156 (dsDNA)", "DNA 1": "TAACTTTTTTTTTTTTTTTTTTAACTTTTATGTAAT", "DNA 2": "ATTACATAAAAGTTAAAAAAAAAAAAAAAAAAGTTA"}, "B16": {"name": "GTGCAC_negctrl_site664 (dsDNA)", "DNA 1": "AAAAAAAAAAAGATAAATACAAGTTACACAAAAAAA", "DNA 2": "TTTTTTTGTGTAACTTGTATTTATCTTTTTTTTTTT"}, "B17": {"name": "GTGCAC_negctrl_site473 (dsDNA)", "DNA 1": "GGGTCAAGTAAGCTGTTCCTCTTTTTCTTTCTCACT", "DNA 2": "AGTGAGAAAGAAAAAGAGGAACAGCTTACTTGACCC"}, "B18": {"name": "GTGCAC_negctrl_site123 (dsDNA)", "DNA 1": "TCCTTAAAAATCTAAAAAGAAAAAAACATATATTTT", "DNA 2": "AAAATATATGTTTTTTTCTTTTTAGATTTTTAAGGA"}, "B19": {"name": "GTGCAC_negctrl_site307 (dsDNA)", "DNA 1": "AATAATAAACACAATCAAATAAAATATGAAATATAA", "DNA 2": "TTATATTTCATATTTTATTTGATTGTGTTTATTATT"}, "B20": {"name": "GTGCAC_site10325 (dsDNA)", "DNA 1": "TATATACATGTGAGAGTGCATATAGACATAAAAAAT", "DNA 2": "ATTTTTTATGTCTATATGCACTCTCACATGTATATA"}, "B21": {"name": "GTGCAC_negctrl_site286 (dsDNA)", "DNA 1": "TCCTATCATTTATATTTTACTACATAATATTGATAA", "DNA 2": "TTATCAATATTATGTAGTAAAATATAAATGATAGGA"}, "B22": {"name": "GTGCAC_negctrl_site558 (dsDNA)", "DNA 1": "AAATAATATATTCTATATAATAAATTATAAATATAA", "DNA 2": "TTATATTTATAATTTATTATATAGAATATATTATTT"}, "B23": {"name": "GTGCAC_negctrl_site193 (dsDNA)", "DNA 1": "GCATATATTATATATTTATTTATTTTTTTTTTTTAA", "DNA 2": "TTAAAAAAAAAAAATAAATAAATATATAATATATGC"}, "B24": {"name": "GTGCAC_negctrl_site234 (dsDNA)", "DNA 1": "GACAAAAAATTAAAATAAAATAATAATATAATAAAA", "DNA 2": "TTTTATTATATTATTATTTTATTTTAATTTTTTGTC"}, "B25": {"name": "GTGCAC_negctrl_site662 (dsDNA)", "DNA 1": "TTTTAATGAAATATCAAAAAAATTTATGATTTCAAA", "DNA 2": "TTTGAAATCATAAATTTTTTTGATATTTCATTAAAA"}, "B26": {"name": "GTGCAC_site10554 (dsDNA)", "DNA 1": "TATATATATATATGAGTGCATATGTGTAATATAAAA", "DNA 2": "TTTTATATTACACATATGCACTCATATATATATATA"}, "B27": {"name": "GTGCAC_negctrl_site643 (dsDNA)", "DNA 1": "TGTAGTCATTAGTCAAATTAGAATTAAATATATATT", "DNA 2": "AATATATATTTAATTCTAATTTGACTAATGACTACA"}, "B28": {"name": "GTGCAC_negctrl_site256 (dsDNA)", "DNA 1": "AATGATTTTAAATGAACATAATTTATATTCATAACA", "DNA 2": "TGTTATGAATATAAATTATGTTCATTTAAAATCATT"}, "B29": {"name": "GTGCAC_negctrl_site587 (dsDNA)", "DNA 1": "AAAAAAATAAAATTATATAAAATAAATTTTTATAAT", "DNA 2": "ATTATAAAAATTTATTTTATATAATTTTATTTTTTT"}, "B30": {"name": "GTGCAC_site9973 (dsDNA)", "DNA 1": "AATTAAAAGTGAAGAGTGCATAGAATTTTTTACTTT", "DNA 2": "AAAGTAAAAAATTCTATGCACTCTTCACTTTTAATT"}, "B31": {"name": "GTGCAC_negctrl_site531 (dsDNA)", "DNA 1": "AAATAAATTAAAATAAATTAAATTAAATTAGCATTA", "DNA 2": "TAATGCTAATTTAATTTAATTTATTTTAATTTATTT"}, "B32": {"name": "GTGCAC_negctrl_site161 (dsDNA)", "DNA 1": "AGAAAAAAAAAAAAAAATAAAAAAATAAATAAATAA", "DNA 2": "TTATTTATTTATTTTTTTATTTTTTTTTTTTTTTCT"}}, "biological_target": "AP2-I D3 (Plasmodium falciparum, UniProt Q8IJW6 910-1027)", "assay": "gcPBM; about 25 ug protein; PBS, 1% milk, 0.2 mg/ml BSA, salmon testes DNA, 0.03% Triton X-100", "conditions": "tags: N-terminal GST (pGEX-4T-1), kept; label: surface-attached array probe"}
{"binder": "B1", "values": [{"measurement": "binding signal", "value": "9.98 ln median PBM intensity, better of two orientations"}]}
{"binder": "B2", "values": [{"measurement": "binding signal", "value": "9.74 ln median PBM intensity, better of two orientations"}]}
{"binder": "B3", "values": [{"measurement": "binding signal", "value": "7.01 ln median PBM intensity, better of two orientations"}]}
{"binder": "B4", "values": [{"measurement": "binding signal", "value": "9.8 ln median PBM intensity, better of two orientations"}]}
{"binder": "B5", "values": [{"measurement": "binding signal", "value": "6.82 ln median PBM intensity, better of two orientations"}]}
{"binder": "B6", "values": [{"measurement": "binding signal", "value": "9.87 ln median PBM intensity, better of two orientations"}]}
{"binder": "B7", "values": [{"measurement": "binding signal", "value": "6.92 ln median PBM intensity, better of two orientations"}]}
{"binder": "B8", "values": [{"measurement": "binding signal", "value": "7 ln median PBM intensity, better of two orientations"}]}
{"binder": "B9", "values": [{"measurement": "binding signal", "value": "9.96 ln median PBM intensity, better of two orientations"}]}
{"binder": "B10", "values": [{"measurement": "binding signal", "value": "6.88 ln median PBM intensity, better of two orientations"}]}
{"binder": "B11", "values": [{"measurement": "binding signal", "value": "6.84 ln median PBM intensity, better of two orientations"}]}
{"binder": "B12", "values": [{"measurement": "binding signal", "value": "7 ln median PBM intensity, better of two orientations"}]}
{"binder": "B13", "values": [{"measurement": "binding signal", "value": "6.79 ln median PBM intensity, better of two orientations"}]}
{"binder": "B14", "values": [{"measurement": "binding signal", "value": "9.82 ln median PBM intensity, better of two orientations"}]}
{"binder": "B15", "values": [{"measurement": "binding signal", "value": "6.93 ln median PBM intensity, better of two orientations"}]}
{"binder": "B16", "values": [{"measurement": "binding signal", "value": "6.94 ln median PBM intensity, better of two orientations"}]}
{"binder": "B17", "values": [{"measurement": "binding signal", "value": "6.97 ln median PBM intensity, better of two orientations"}]}
{"binder": "B18", "values": [{"measurement": "binding signal", "value": "6.9 ln median PBM intensity, better of two orientations"}]}
{"binder": "B19", "values": [{"measurement": "binding signal", "value": "6.89 ln median PBM intensity, better of two orientations"}]}
{"binder": "B20", "values": [{"measurement": "binding signal", "value": "10 ln median PBM intensity, better of two orientations"}]}
{"binder": "B21", "values": [{"measurement": "binding signal", "value": "6.95 ln median PBM intensity, better of two orientations"}]}
{"binder": "B22", "values": [{"measurement": "binding signal", "value": "6.74 ln median PBM intensity, better of two orientations"}]}
{"binder": "B23", "values": [{"measurement": "binding signal", "value": "6.96 ln median PBM intensity, better of two orientations"}]}
{"binder": "B24", "values": [{"measurement": "binding signal", "value": "6.9 ln median PBM intensity, better of two orientations"}]}
{"binder": "B25", "values": [{"measurement": "binding signal", "value": "6.64 ln median PBM intensity, better of two orientations"}]}
{"binder": "B26", "values": [{"measurement": "binding signal", "value": "9.85 ln median PBM intensity, better of two orientations"}]}
{"binder": "B27", "values": [{"measurement": "binding signal", "value": "6.93 ln median PBM intensity, better of two orientations"}]}
{"binder": "B28", "values": [{"measurement": "binding signal", "value": "6.86 ln median PBM intensity, better of two orientations"}]}
{"binder": "B29", "values": [{"measurement": "binding signal", "value": "6.82 ln median PBM intensity, better of two orientations"}]}
{"binder": "B30", "values": [{"measurement": "binding signal", "value": "9.92 ln median PBM intensity, better of two orientations"}]}
{"binder": "B31", "values": [{"measurement": "binding signal", "value": "6.62 ln median PBM intensity, better of two orientations"}]}
{"binder": "B32", "values": [{"measurement": "binding signal", "value": "6.87 ln median PBM intensity, better of two orientations"}]}
